This note sets out measurements from PMC5071727, “A Structure‐Guided Switch in the Regioselectivity of a Tryptophan Halogenase” (Chembiochem, 2016).

Common to all, as to assay: steady-state chlorination kinetics
What all share (format): biochemical, Streptomyces toxytricini
Conditions in all cases: wild type; kinetic assay conditions not given

Substrate in data set [1]: NC(=O)c1ccccc1N
An excerpt:
(§1) steady-state chlorination kinetics on SttH

Substrate in data set [2]: N[C@@H](Cc1c[nH]c2ccccc12)C(=O)O
Text: as §1

Substrate in data set [3]: Nc1ccccc1C(=O)C[C@H](N)C(=O)O
Text: as §1

B1: SttH (Streptomyces toxytricini) (protein)
chain: MNTRNPDKVVIVGGGTAGWMTASYLKKAFGERVSVTLVESGTIGTVGVGEATFSDIRHFFEFLDLREEEWMPACNATYKLAVRFQDWQRPGHHFYHPFEQMRSVDGFPLTDWWLQNGPTDRFDRDCFVMASLCDAGRSPRYLNGSLLQQEFDERAEEPAGLTMSEHQGKTQFPYAYHFEAALLAEFLSGYSKDRGVKHVVDEVLEVKLDDRGWISHVVTKEHGDIGGDLFVDCTGFRGVLLNQALGVPFVSYQDTLPNDSAVALQVPLDMEARGIPPYTRATAKEAGWIWTIPLIGRIGTGYVYAKDYCSPEEAERTLREFVGPEAADVEANHIRMRIGRSEQSWKNNCVAIGLSSGFVEPLESTGIFFIHHAIEQLVKHFPAGDWHPQLRAGYNSAVANVMDGVREFLVLHYLGAARNDTRYWKDTKTRAVPDALAERIERWKVQLPDSENVFPYYHGLPPYSYMAILLGTGAIGLRPSPALALADPAAAEKEFTAIRDRARFLVDTLPSQYEYFAAMGQRV
notes: wild type, purified recombinant from E. coli; dimer in crystal
In the case of B1, the Km in data set [1] came to 1075 ± 154 µM; in data set [2], 0.8 ± 0.1 µM; in data set [3], 241 ± 32 µM. In addition, the kcat came out at 0.0202 ± 0.000667 s⁻¹ in data set [1], 0.0108 ± 0.000333 s⁻¹ in data set [2] and 0.0085 ± 0.000333 s⁻¹ in data set [3]. Also, the kcat/Km was 18.3 ± 2.83 M⁻¹ s⁻¹ in data set [1], 13700 ± 1580 M⁻¹ s⁻¹ in data set [2] and 35 ± 5 M⁻¹ s⁻¹ in data set [3].

A word on the Km: it is the concentration of substrate that gives half-maximal velocity. Usually kcat stands for the number of substrate molecules converted per active site and unit of time at saturation. By kcat/Km is commonly meant the turnover number divided by the Michaelis constant.
